This series relates to ATP. In words: switch fluorescence ratio, 500 uM ATP over buffer (Cy3 cluster intensity, sum of 5 cycles each) (fold (ratio)); higher = stronger signal-on switching upon ATP binding; sequences stand for … in TCGTCGGCAGCGTCAGATGTGTATAAGAGACAGTTTTTTTTTTTTTTTTTTTTTTTTT…TC. To be noted: aptamer strand: ATP DNA aptamer (quencher-CACCTGGGGGAGTATTGCGGAGGAAGG + anchor), 100 nM annealed; ATP concentration: 500 uM. Put shortly:
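Five buffer/ATP imaging cycles were run on Cy3-labelled switching-strand clusters on a modified Illumina MiSeq flow-cell, with NaOH stripping and re-annealing between cycles. In each cycle, clusters annealed to 100 nM quencher-labelled ATP aptamer were imaged in selection buffer, then after 15 min with 500 uM ATP at 22 °C. Per cluster, the fluorescence ratio is summed target-cycle over summed buffer-cycle Cy3 intensity, averaged per switch-domain sequence. Only clusters within 100-1000 RFU were kept.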

± gives the standard deviation of the averaged measurements.
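Also: ATP exposure 15 min at 22 °C before imaging.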

For the sequence CGTTATAAAT, the switch fluorescence ratio was found to be 0.996 ± 0.029.
To ATAAGTGCGA belongs 0.9826 ± 0.002; to TTTCAAACCT, 1.57 ± 0.64; to ATTTTGTCGC, 0.992 ± 0.016.
With GGGATTTGGT the figure was 1.02 ± 0.02; with GGTCCTCGTG, 0.998 ± 0.027; with TAGGGGTCAA, 0.99815 ± 0.0002.
To TGAATAGAAC belongs 1.01 ± 0.015; to CCAGAGGAAC, 0.948 ± 0.019; to TTCGAGCCGA, 1.029 ± 0.0064.
On to AAGTTTCACG, for which the switch fluorescence ratio amounted to 1 ± 0.058.
Turning to GGAAAAAGGT, the switch fluorescence ratio is 1.05 ± 0.14.
With TTGGGTGGGT the figure was 1 ± 0.038; with ATAGATGTTG, 0.9812 ± 0.0069.
To TATGAGTAAT belongs 0.9866 ± 0.0093; to CAATTGGTTT, 0.997 ± 0.016; to TTATTAGGGT, 1 ± 0.022.
With TGGCATCTTT the figure was 1.02 ± 0.018.
Take AAGAGATGTG: the switch fluorescence ratio was 0.985 ± 0.024.
To GCATTGGTCA belongs 1.027 ± 0.0076; to ATTCTGGAAT, 1.02 ± 0.06; to CCGGGGGGCC, 1.08 ± 0.038.
To TGGAGGGGGT belongs 1.09 ± 0.28; to AGCGTCTCCG, 1.024 ± 0.006; to CATTGCAAAC, 5.13 ± 0.53.
To GAGGGGGACT belongs 1.13 ± 0.19; to TTCGAAGGAA, 1.1 ± 0.028; to AGGTACACCT, 1.08 ± 0.053.
With AGATGGGTAT, the switch fluorescence ratio stood at 0.986 ± 0.011.
With CGTGTGAGGT the figure was 0.9972 ± 0.008; with TCGTTGAACG, 0.973 ± 0.03.
Regarding TAAGGCCCGG, the switch fluorescence ratio was 1 ± 0.03.
With GGGTTGGGG the figure was 0.995 ± 0.048.
Consider TTTTATGAGA, for which the switch fluorescence ratio was 0.978 ± 0.031.
To GGGAGAACGA belongs 0.984 ± 0.015.
Turning to ATACCTTATG, the switch fluorescence ratio was found to be 1 ± 0.029.
To TGAGGGGTAG belongs 0.988 ± 0.05; to TGGAGTAATT, 1.06 ± 0.063; to GAAGCCATAT, 1.48 ± 0.068.
To TTGAGGTCGG belongs 1.005 ± 0.0066; to CTAGGCTAAT, 1.014 ± 0.01; to ACTTGTTTGG, 1.01 ± 0.023.
With CACAAGGGCG the figure was 0.94 ± 0.02.
With TAAGCTGTCA, the switch fluorescence ratio came out at 0.965 ± 0.064.
With TCGAGAGGTG the figure was 1.1 ± 0.1; with TCAAGCGAAC, 1.48 ± 0.061.
To GCAGGGGGAA belongs 1.08 ± 0.053; to CTGGGTTGTA, 1 ± 0.012; to AGCTGAACGG, 1.05 ± 0.025.
With TAGACTGGTT the figure was 0.992 ± 0.018; with GGTTTAGGCT, 1.08 ± 0.12; with CAGGATCTTG, 0.974 ± 0.031.
TATAAAAGTG: the switch fluorescence ratio is 0.958 ± 0.053.
With TAACCGAGAT the figure was 1.01 ± 0.043.
To AACATCTAGC belongs 0.994 ± 0.031.
With TTGGCGAGTT the figure was 1.007 ± 0.002.
Consider CTGAAGGTTG, for which the switch fluorescence ratio worked out at 0.9737 ± 0.0014.
Take TTTTACTATG: the switch fluorescence ratio turned out to be 0.9893 ± 0.0041.
With CTTATTTCGT the figure was 1.001 ± 0.0018.
With CGATCGATAT the figure was 0.998 ± 0.032; with CAGAGATGTT, 1.01 ± 0.032; with AGGCACGTCG, 1.021 ± 0.009.
With ATGTGCTGCG the figure was 0.993 ± 0.031; with GGTAGTTGGT, 1.01 ± 0.011; with GGTGTTAGGT, 0.9925 ± 0.0029.
As to CGAAGGGGTG, the switch fluorescence ratio stood at 0.9749 ± 0.0032.
To ATAGTATGTA belongs 1.01 ± 0.031; to ATGTTTGGTG, 0.97 ± 0.019.
With GGGATTTTGC the figure was 0.952 ± 0.015; with AGCCACATGG, 0.98 ± 0.031.
To TTGGTAGCTA belongs 0.9889 ± 0.0098; to TTGCTTCGGC, 0.976 ± 0.04.
For the sequence GCATAATGAT, the switch fluorescence ratio was 1 ± 0.022.
With TTGAGGGCAG the figure was 1 ± 0.034; with ATGAGGTTTC, 0.989 ± 0.016; with TTTAGGGTTC, 1.04 ± 0.1.
With ATATATTTAT the figure was 1.022 ± 0.0085; with AAATCGAGCT, 1.04 ± 0.049; with AAGAGATAGT, 1 ± 0.0076.
With CGAGCAGTGG the figure was 1.1 ± 0.034; with GACTGTGATC, 1.037 ± 0.0042.
Turning to TCTGTTAAT, the switch fluorescence ratio came out at 1.11 ± 0.18.
As to ACCAAAGGCG, the switch fluorescence ratio is 1.04 ± 0.043.
To ATTCTCGTTA belongs 0.996 ± 0.0053; to TTTATTTTGG, 0.995 ± 0.053.
With TTGGGGAAAT the figure was 1.31 ± 0.68; with GAATGGGGA, 0.986 ± 0.021; with TTGGCTTTGT, 0.985 ± 0.022.
To TTTCAAGGGA belongs 0.9904 ± 0.0048; to GGCTCATAGT, 0.996 ± 0.017.
Consider CGAATCCCCA, for which the switch fluorescence ratio worked out at 1.07 ± 0.032.
With TTAAGTGATT the figure was 0.999 ± 0.025.
To GCCAGGGGGG belongs 1.01 ± 0.029; to CGTCATTTTC, 1.05 ± 0.1; to TTTTCCAATA, 1.52 ± 0.13.
With TGCTGTTCTG the figure was 1.032 ± 0.0019; with GCTGTTGAAT, 1.02 ± 0.041.
For the sequence TATGATGGGT, the switch fluorescence ratio came out at 1.015 ± 0.01.
With CCGCATTGGT the figure was 4.77 ± 0.66; with TAGAGGGGCA, 0.979 ± 0.011; with GCGATGAGAG, 1.03 ± 0.026.
With AATGGAAATT the figure was 0.996 ± 0.063; with GTCACTAAAG, 1.02 ± 0.043.
With AACTAATTTT the figure was 0.9961 ± 0.0024; with GGAATAGCGG, 0.993 ± 0.029.
For TATTGTGTCG, the switch fluorescence ratio was 1.02 ± 0.016.
To AATTACCTCG belongs 1.04 ± 0.043; to TGGGGGAGAT, 1.04 ± 0.1.
With ATGTTTAGGG the figure was 1.01 ± 0.042; with TGGCGTGGGA, 1 ± 0.035; with TGGGAATAGG, 0.993 ± 0.019.
On to GGGGTGATGT, for which the switch fluorescence ratio is 0.9803 ± 0.0066.
With TGGGGGTAGT the figure was 0.99 ± 0.022; with TTTGACTGGT, 0.984 ± 0.027.
Consider GGGACGGGGA, for which the switch fluorescence ratio was found to be 0.978 ± 0.026.
To GATCAAATAT belongs 1.01 ± 0.0063; to CCTGCATGTG, 1.26 ± 0.02; to TAAAGGTCGG, 0.967 ± 0.028.
With ACATAGGTCA the figure was 1.02 ± 0.022.
To ATAGGCATGC belongs 1.06 ± 0.067.

The values above are taken from the supplement of paper PMC10126150.
